Measured values as given in article PMC9729196, “An in silico method to assess antibody fragment polyreactivity” (Nature Communications, 2022).
Where two headings read alike, the source gives them in different places.

T1: wild-type human FLAG-AT1R (angiotensin II type 1 receptor) (human, UniProt P30556 1-359)
T1 chain: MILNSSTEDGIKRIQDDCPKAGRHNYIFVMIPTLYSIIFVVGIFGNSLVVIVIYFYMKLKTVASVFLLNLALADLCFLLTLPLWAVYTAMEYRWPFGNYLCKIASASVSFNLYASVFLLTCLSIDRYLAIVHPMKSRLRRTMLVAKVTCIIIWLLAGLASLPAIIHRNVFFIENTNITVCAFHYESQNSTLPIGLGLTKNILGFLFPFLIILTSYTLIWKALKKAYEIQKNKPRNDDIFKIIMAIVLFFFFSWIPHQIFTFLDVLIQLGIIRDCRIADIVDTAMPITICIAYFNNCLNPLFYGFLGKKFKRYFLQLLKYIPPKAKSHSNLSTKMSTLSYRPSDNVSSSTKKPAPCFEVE


How the values were obtained:
insulin = insulin (Homo sapiens (assumed; ), UniProt P01308)
[1] = molecular target: T1, wild-type human FLAG-AT1R (angiotensin …); assay: FACS
[2] = molecular target: T2, wild-type human FLAG-AT1R (angiotensin II type 1 receptor) (Homo sapiens, UniProt P30556); assay: radioligand binding; competition of nanobody with 2 nM [3H]-olmesartan on membranes of FLAG-AT1R cells; 50 mM Tris pH 7.4, 12.5 mM MgCl2, 150 mM NaCl, 0.2% BSA, 90 min, room temperature; Ki from a one-site competition model; details: one partner purified
T2 construct: angiotensin II type 1 receptor (AT1R), human, wild type; Cells were gated with the M1 anti-FLAG antibody; also called angiotensin II type I receptor; source: Expi293F TetR cells, stably transfected (pCDNA Zeo-TetO), induced with doxycycline; on cells, or in cell membranes prepared from them

[3] = molecular target: T1, wild-type human FLAG-AT1R (angiotensin …)
[4] = molecular target: T2, wild-type human FLAG-AT1R (angiotensin …); assay: flow cytometry on cells; Expi293F cells expressing FLAG-AT1R stained with 20 nM nanobody (C-terminal V5), 1 h, 4 °C, 20 mM Hepes pH 7.4, 150 mM NaCl, 0.1% BSA; detected with Alexa 647 anti-V5; gated for M1 anti-FLAG-positive singlets; details: one partner purified
[5] = molecular target: T1, wild-type human FLAG-AT1R (angiotensin …); assay: [3H]-olmesartan competition, membranes

Sequence of insulin (F8WCM5 25-54, chain 1 of 2): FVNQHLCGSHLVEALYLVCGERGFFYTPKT
Sequence of insulin (P01308 90-110, chain 2 of 2): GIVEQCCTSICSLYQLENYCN

| Kd [1] | Ki [3] | Binder | also measured |
| --- | --- | --- | --- |
| – | – | F10' (VHH) VHH: QVQLVESGGGLVQAGGSLRLSCAASGSTFWWYAMGWYRQAPGKERELVATISRGGSTNYADSVKGRFTISRDNAKNTVYLQMNSLKPEDTAVYYCARKTRDIRLDYWGQGTQVTVSS | binding result (insulin): binds |
| 54 nM | 79.4 nM | AT118i4h32 G26D^27 T57I^65 (VHH, as the chain of m1 with the two stated substitutions; its own crystal structure is one of PDB 7T83 and 7T84 (crystallised construct: N-terminal Met-Ala, C-terminal His tag); the superscripts are IMGT numbers; also called G26D^27 T57I^65 variant; source: E. coli BL21(DE3), pET26b, purified (Protein A, Ni-NTA); not shown: V5, C-terminal, kept; His6, C-terminal, kept) VHH: EVQLVESGGGLVQPGGSLRLSCAASDYIYRRYRMGWYRQAPGKGREFVAAISGGSSINYADSVKGRFTISRDNSKNTVYLQMNSLRAEDTAVYYCAAYRIVSDPRVYWGQGTQVTVSS | binding result [2]: binds |
| – | 70.8 nM | AT118i4h32 G26D^27 (VHH) VHH: EVQLVESGGGLVQPGGSLRLSCAASDYIYRRYRMGWYRQAPGKGREFVAAISGGSSTNYADSVKGRFTISRDNSKNTVYLQMNSLRAEDTAVYYCAAYRIVSDPRVYWGQGTQVTVSS | – |
| – | – | AT118i4h32 T57D^65 (VHH, as the chain of m1 with the stated substitution; the superscript is the IMGT number; also called T57D^65 substitution; source: E. coli BL21(DE3), pET26b, purified (Protein A, Ni-NTA); not shown: V5, C-terminal, kept; His6, C-terminal, kept) VHH: EVQLVESGGGLVQPGGSLRLSCAASGYIYRRYRMGWYRQAPGKGREFVAAISGGSSDNYADSVKGRFTISRDNSKNTVYLQMNSLRAEDTAVYYCAAYRIVSDPRVYWGQGTQVTVSS | fold decrease of binding against the wild type [4]: 2 fold |
| 58.3 nM | – | AT118i4h32 (VHH, coordinates of the AT118i4h32 structures are deposited as PDB 7T83 and 7T84 (the crystallised construct has an N-terminal Met-Ala and a C-terminal His tag); humanised form of AT118 (eleven substitutions towards human VH3-23); Nanobody antagonist of AT1R from a synthetic library, humanised; also called WT AT118i4h32; wild-type nanobody; source: E. coli BL21(DE3), pET26b, purified (Protein A, …)) VHH: EVQLVESGGGLVQPGGSLRLSCAASGYIYRRYRMGWYRQAPGKGREFVAAISGGSSTNYADSVKGRFTISRDNSKNTVYLQMNSLRAEDTAVYYCAAYRIVSDPRVYWGQGTQVTVSS | binding result [4]: binds; Ki [5]: 72.4 nM |
| – | 64.6 nM | AT118i4h32 T57I^65 (VHH) VHH: EVQLVESGGGLVQPGGSLRLSCAASGYIYRRYRMGWYRQAPGKGREFVAAISGGSSINYADSVKGRFTISRDNSKNTVYLQMNSLRAEDTAVYYCAAYRIVSDPRVYWGQGTQVTVSS | – |
